Test results as given in US20210324028A1 (Pfizer, published 2021).

What was measured:
[1] = molecular target: T1, mouse PD-1 on doxycycline-induced 32D[pRF770+pRF791] cells (mouse, UniProt Q02242 25-288); experiment: flow cytometry, Alexa647-labelled protein on doxycycline-induced 32D[pRF770+pRF791] cells, 4 C 30 min, % A647-positive cells
T1 construct: whole, on cells; also called PD-1+ cells; [pRF770+pRF791]+Dox
T1 sequence (looked up): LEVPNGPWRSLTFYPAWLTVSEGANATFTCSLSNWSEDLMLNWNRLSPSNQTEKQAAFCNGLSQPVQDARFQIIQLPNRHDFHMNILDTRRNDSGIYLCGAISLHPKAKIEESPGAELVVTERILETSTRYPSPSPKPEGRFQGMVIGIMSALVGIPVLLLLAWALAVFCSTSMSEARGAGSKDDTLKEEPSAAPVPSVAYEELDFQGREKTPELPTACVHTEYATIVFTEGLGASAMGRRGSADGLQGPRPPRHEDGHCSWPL
Experimental: (§1) The following cell lines were suspended in growth medium to 0.7*10\hat{ }6 cells/mL and, cultured for 16 hrs: 1) untransduced 32D (parental line); 2) 32D[pRF770+pRF791]; and 3) 32D[pRF770+pRF791] grown in the presence of 1 ug/mL doxycycline, to induce PD-1 expression. Cultures were then resuspended to a final concentration of 1.0*10\hat{ }6 cells/mL, and 0.1 mL of each suspension was plated into separate wells of a 96-well round-bottom plate, of sufficient number required for the experiment. Each Alexa647-labeled antibody or antibody-cytokine chimeric proteins were then added to a unique well to obtain a final concentration of 500 nM, 100 nM, […], 1 nM, 0.1 nM, 0.01 nM, or 0.001 nM in a given well. Plates were incubated at 4° C. for 30′, and then the cells were pelleted by centrifugation (300×g, 5′) and resuspended in 0.2 mL of PBS. This wash step was repeated twice. Upon final resuspension, the cells were analyzed on an LSRII flow cytometer. Data were analyzed using FlowJo version 10.

[2] = molecular target: T2, IL-15 signaling receptor on 32D[pRF770+pRF791] cells (human CD122 plus mouse CD132) (human; mouse, UniProt P14784 27-551; P34902 23-369); experiment: flow cytometry, Alexa647-labelled protein on uninduced 32D[pRF770+pRF791] cells (human CD122 plus mouse CD132), 4 C 30 min, % A647-positive cells
T2 construct: whole, on cells; also called CD122 plus CD132; PD-1(low) cells
T2 sequence (looked up) 1: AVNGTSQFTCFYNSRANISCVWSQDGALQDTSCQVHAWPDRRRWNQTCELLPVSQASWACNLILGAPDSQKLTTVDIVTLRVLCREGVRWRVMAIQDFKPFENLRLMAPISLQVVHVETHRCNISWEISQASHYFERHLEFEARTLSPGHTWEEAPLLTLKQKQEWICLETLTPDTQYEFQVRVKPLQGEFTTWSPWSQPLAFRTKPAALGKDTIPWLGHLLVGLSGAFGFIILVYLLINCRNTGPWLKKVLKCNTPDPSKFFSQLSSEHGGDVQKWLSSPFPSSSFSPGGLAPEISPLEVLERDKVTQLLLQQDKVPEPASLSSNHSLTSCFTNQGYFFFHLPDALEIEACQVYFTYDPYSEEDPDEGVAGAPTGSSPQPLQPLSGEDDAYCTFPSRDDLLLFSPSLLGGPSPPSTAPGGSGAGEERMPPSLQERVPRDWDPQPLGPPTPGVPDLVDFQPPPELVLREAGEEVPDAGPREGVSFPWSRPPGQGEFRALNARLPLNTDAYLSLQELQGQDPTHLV
T2 sequence (looked up) 2: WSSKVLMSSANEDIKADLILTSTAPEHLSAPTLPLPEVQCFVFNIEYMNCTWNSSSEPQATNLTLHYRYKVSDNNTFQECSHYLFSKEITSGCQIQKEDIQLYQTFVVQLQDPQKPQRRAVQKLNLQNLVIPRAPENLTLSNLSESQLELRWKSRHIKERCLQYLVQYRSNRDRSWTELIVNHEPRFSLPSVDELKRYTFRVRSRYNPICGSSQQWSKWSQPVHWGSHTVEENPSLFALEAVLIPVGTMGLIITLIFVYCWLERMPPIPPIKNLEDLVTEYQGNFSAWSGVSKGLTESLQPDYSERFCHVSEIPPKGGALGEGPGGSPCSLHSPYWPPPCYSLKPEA
Experimental: as §1

B1: xmPD-1 (antibody, human IgG2, kappa, V domains shown)
VH: EVQLVESGGGLVKPGGSLELSCAASGFTFSSYWMSWVRQAPEKGLEWVAAISPSGGSTYYADSVKGRFTISRDNAKNTLFLQMTSLRSEDTAMYYCAKESWGAYYDLWGQGTTVTVSS
VL: DIVMTQSPSSLSVSAGDKVTMSCRASQGISSWLAWYQQKPWQPPKLLIYKASTLESGVPDRFTGSGSGTDFTLTISSVQAEDLAVYYCQQSYSTPWTFGGGTKLEIKG
notes: human IgG2dA constant regions; also called anti-mouse PD-1 antibody; clone F12.3
B1 was tested, and the “EC50 (read off the curve)” value [1] was about 0.03 nM and the binding result [2] was “no binding (tested: 500 nM)”.
